Test [1] addresses YU2-gp140 trimer (artificially trimerized gp140 protein) (HIV-1 (YU2)) (UniProt P35961). As to the kind of experiment: SPR (Biacore T100), antibody immobilized on CM5 chip, gp140 trimer injected, 1:1 model.
The next test addresses YU2-gp120 (HIV-1 (YU2)) (UniProt P35961). As to the kind of experiment: competition ELISA on gp120; unlabeled b12 against biotin labeled b12 (self-inhibition).

The source of these data is patent publication US8673307.

In test [1], b12 (antibody) gave a Kd of 12 nM. In the test with YU2-gp120 (HIV-1 (YU2)), this substance showed an IC50 of 5 µg/mL.
